{
  "source": "patent US20040175720A1",
  "about": "(NEW YORK UNIVERSITY, published 2004)",
  "binders": {"B1": {"name": "B42-NIF-1 (full-length), B42 activation domain fusion expressed from pJG4-5 in yeast (other, not shown: large carriers)", "chain": "MEENEVESSSDAAPGPGRPEEPSESGLGVGTSEAVSADSSDAAAAPGQAEADDSGVGQSSDRGSRSQEEVSESSSSADPLPNSYLPDSSSVSHGPVAGVTGGPPALVHSSALPDPNMLVSDCTASSSDLGSAIDKIIESTIGPDLIQNCITVTSAEDGGAETTRYLILQGPDDGAPMTSPMSSSTLAHSLAAIEALADGPTSTSTCLEAQGGPSSPVQLPPASGAEEPDLQSLEAMMEVVVVQQFKCKMCQYRSSTKATLLRHMRERHFRPVAAAAAAAGKKGRLRKWSTSTKSQEEEGPEEEDDDDIVDAGAIDDLEEDSDYNPAEDEPRGRQLRLQRPTPSTPRPRRRPGRPRKLPRLEISDLPDGVEGEPLVSSQSGQSPPEPQDPEAPSSSGPGHLVAMGKVSRTPVEAGVSQSDAENAAPSCPDEHDTLPRRRGRPSRRFLGKKYRKYYYKSPKPLLRPFLCRICGSRFLSHEDLRFHVNSHEAGDPQLFKCLQCSYRSRRWSSLKEHMFNHVGSKPYKCDECSYTSVYRKDVIRHAAVHSRDRKKRPDPTPKLSSFPCPVCGRVYPMQKRLTQHMKTHSTEKPHMCDKCGKSFKKRYTFKMHLLTHIQAVANRRFKCEFCEFVCEDKKALLNHQLSHVSDKPFKCSFCPYRTFREDFLLSHVAVKHTGAKPFACEYCHFSTRHKKNLRLHVRCRHASSFEEWGRRHPEEPPSRRRPFFSLQQIEELKQQHSAAPGPPPSSPGPPEIPPEATTFQSSEAPSLLCSDTLGGATIIYQQGAEESTAMATQTALDLLLNMSAQRELGGTALQVAVVKSEDVEAGLASPGGQPSPEGATPQVVTLHVAEPGGGAAAESQLGPPDLPQITLAPGPFGGTGYSVITAPPMEEGTSAPGTPYSEEPAGEAAQAVVVSDTLKEAGTHYIMATDGTQLHHIELTADGSISFPSPDALASGAKWPLLQCGGLPRDGPEPPSPAKTHCVGDSQSSASSPPATSKALGLAVPPSPPSAATAASKKFSCKICAEAFPGRAEMESHKRAHAGPGAFKCPDCPFSARQWPEVRAHMAQHSSLRPHQCSQCSFASKNKKDLRRHMLTHTKEKPFACHLCGQRFNRNGHLKFHIQRLHSPDGRKSGTPTARAPTQTPTQTIILNSDDETLATLHTALQSSHGVLGPERLQQALSQEHIIVAQEQTVTNQEEAAYIQEITTADGQTVQHLVTSDNQVQYIISQDGVQHLLPQEYVVVPEGHHIQVQEGQITHIQYEQGAPFLQESQIQYVPVSPGQQLVTQAQLEAAAHSAVTAVADAAMAQAQGLFGTDETVPEHIQQLQHQGIEYDVITLADD", "notes": "also called NIF-1 expressed as a B42-fusion"}},
  "key": {"[1]": {"target": "T1, LexA-NRC-b (LexA DBD fused to NRC amino acids 849-2063), bait of the two-hybrid screen (UniProt P0A7C2 1-202; Q14686 849-2063)", "T1 construct": "domain: LexA DBD;range 849-2063", "assay": "yeast two-hybrid, LexA-NRC fusions against B42-NIF-1 constructs (FIG. 6A)", "from_the_text": "Cell. Biol. 20:5048-5063 (2000), which is hereby incorporated by reference in its entirety). The yeast strain EGY48 harboring the LacZ reporter pSH1 8-34 (Gyuris et al., “Cdi1, A Human G1 and S Phase Protein Phosphatase that Associates with Cdk2,” Cell 75:791-803 (1993), which is hereby incorporated by reference in its entirety), and pEG202ΔPL-NRC-b was transformed with the GH4C1 pJG4-5 cDNA library. Transformants were directly screened on X-gal SD-galactose-raffinose plates lacking trp, ura, his, and leu. Putative positive clones were further purified on trp⁻, ura⁻, his⁻, and leu⁻ SD-galactose-raffinose plates. The purified clones were plated on SD-dextrose/trp⁻, ura^{-,} his⁻ plates to repress the expression of cDNAs from pJG4-5. Galactose-inducible interactions were verified upon replica plating each clone on trp⁻, ura⁻, his⁻, leu⁻ X-gal SD-galactose-raffinose and trp⁻, ura⁻, his⁻ X-gal SD-dextrose plates. […] The putative cDNAs from positive clones were further verified against several different baits. The positive interactors were then sequenced and subjected to restriction digestion, size determination, and further analysis.\nVarious regions of NRC were expressed as LexA fusions in yeast (designated as rows “a-g” in FIG. 6A) and their interaction compared with full-length NIF-1, NIF-2, and various deletions of NIF-1 conditionally expressed from pJG4-5. […]"}, "[2]": {"target": "B1", "assay": "yeast two-hybrid, B42-NIF-1 (full-length) against LexA full-length cTRα", "protocol": "To examine for this possibility, the interaction of B42-NIF-1 (full-length), conditionally expressed from pJG4-5, was studied with LexA fusions of nuclear receptor LBDs (cTRα, ERa, RXRα, GR, RARα, and PPARα) in yeast, as shown in FIG. 7. In addition, a LexA-fusion of full-length cTRα was also tested against B42-NIF-1 (full-length) and gave similar results as with the cTRα LBD. […] To document that the LexA-LBD fusions were expressed and responded to ligand in yeast, similar studies were carried out with B42-NRC."}},
  "data": [
    {"binder": "B1", "values": [
      {"measurement": "binding result", "setting": "[1]", "result": "binds"}
    ]},
    {"binder": "LexA-fusion of full-length cTRα (receptor, UniProt P0A7C2 1-202, looked up, domain: LexA DBD;mature) MKALTARQQEVFDLIRDHISQTGMPPTRAEIAQRLGFRSPNAAEEHLKALARKGVIEIVSGASRGIRLLQEEEEGLPLVGRVAAGEPLLAQQHIEGHYQVDPSLFKPNADFLLRVSGMSMKDIGIMDGDLLAVHKTQDVRNGQVVVARIDDEVTVKRLKKQGNKVELLPENSEFKPIVVDLRQQSFTIEGLAVGVIRNGDWLMEQKPSTLDPLSEPEDTRWLDGKRKRKSSQCLVKSSMSGYIPSYLDKDEQCVVCGDKATGYHYRCITCEGCKGFFRRTIQKNLHPTYSCKYDGCCVIDKITRNQCQLCRFKKCISVGMAMDLVLDDSKRVAKRKLIEENRERRRKEEMIKSLQHRPSPSAEEWELIHVVTEAHRSTNAQGSHWKQKRKFLPEDIGQSPMASMPDGDKVDLEAFSEFTKIITPAITRVVDFAKKLPMFSELPCEDQIILLKGCCMEIMSLRAAVRYDPESETLTLSGEMAVKREQLKNGGLGVVSDAIFDLGKSLSAFNLDDTEVALLQAVLLMSSDRTGLICVDKIEKCQETYLLAFEHYINYRKHNIPHFWPKLLMKVTDLRMIGACHASRFLHMKVECPTELFPPLFLEVFEDQEV", "values": [
      {"measurement": "binding result", "setting": "[2]", "result": "no binding"}
    ]}
  ]
}
